Results as given in patent publication US20130177579A1 (BIOALLIANCE C V, published 2013).

Tests used:
[1] = biological target: human transferrin receptor expressed by nonhematopoietic cancer cells (human) (UniProt P02786); assay: FACS, NCI-N87 cells, 1/5X
[2] = biological target: human transferrin receptor expressed by nonhematopoietic cancer cells (human) (UniProt P02786); assay: FACS, COLO205 cells, 1X
[3] = biological target: human transferrin receptor expressed by nonhematopoietic cancer cells (human) (UniProt P02786); assay: FACS, DLD-1 cells, 1X
[4] = biological target: human transferrin receptor expressed by nonhematopoietic cancer cells (human) (UniProt P02786); assay: FACS, SNU-16 cells, 1/5X
[5] = biological target: human transferrin receptor expressed by nonhematopoietic cancer cells (human) (UniProt P02786); assay: FACS, Kato III cells, 1X
[6] = biological target: human transferrin receptor expressed by nonhematopoietic cancer cells (human) (UniProt P02786); assay: FACS, WiDr cells, 1X
[7] = biological target: human transferrin receptor expressed by nonhematopoietic cancer cells (human) (UniProt P02786); assay: FACS, NCI-N87 cells, 1X
[8] = biological target: human transferrin receptor expressed by nonhematopoietic cancer cells (human) (UniProt P02786); assay: FACS, SNU-16 cells, 1X
[9] = biological target: human transferrin receptor expressed by nonhematopoietic cancer cells (human) (UniProt P02786); assay: FACS, A549 cells, 1X
[10] = biological target: human transferrin receptor expressed by nonhematopoietic cancer cells (human) (UniProt P02786); assay: FACS, SK-OV-3 cells, 1X
[11] = biological target: human transferrin receptor expressed by nonhematopoietic cancer cells (human) (UniProt P02786); assay: FACS, DU145 cells, 1/5X
[12] = biological target: human transferrin receptor expressed by nonhematopoietic cancer cells (human) (UniProt P02786); assay: FACS, Panc-1 cells, 1/5X
[13] = biological target: human transferrin receptor expressed by nonhematopoietic cancer cells (human) (UniProt P02786); assay: FACS, Panc-1 cells, 1X
[14] = biological target: human transferrin receptor expressed by nonhematopoietic cancer cells (human) (UniProt P02786); assay: FACS, DU145 cells, 1X
[15] = biological target: human transferrin receptor expressed by nonhematopoietic cancer cells (human) (UniProt P02786); assay: FACS, A549 cells, 1/5X
[16] = biological target: human transferrin receptor expressed by nonhematopoietic cancer cells (human) (UniProt P02786); assay: FACS, SNU-16 cells, 1x
[17] = biological target: human transferrin receptor expressed by nonhematopoietic cancer cells (human) (UniProt P02786); assay: FACS, H727 cells, 1/5X
[18] = biological target: human transferrin receptor expressed by nonhematopoietic cancer cells (human) (UniProt P02786); assay: FACS, Kato III cells, 1x
[19] = biological target: human transferrin receptor expressed by nonhematopoietic cancer cells (human) (UniProt P02786); assay: FACS, COLO205 cells, 1x
[20] = biological target: human transferrin receptor expressed by nonhematopoietic cancer cells (human) (UniProt P02786); assay: FACS, DU145 cells, 1x
[21] = biological target: human transferrin receptor expressed by nonhematopoietic cancer cells (human) (UniProt P02786); assay: FACS, SK-OV-3 cells, 1x
[22] = biological target: human transferrin receptor expressed by nonhematopoietic cancer cells (human) (UniProt P02786); assay: FACS, OMC-3 cells, 1x
[23] = biological target: human transferrin receptor expressed by nonhematopoietic cancer cells (human) (UniProt P02786); assay: FACS, DLD-1 cells, 1x
[24] = biological target: human transferrin receptor expressed by nonhematopoietic cancer cells (human) (UniProt P02786); assay: FACS, Panc02.03B cells, 1x
[25] = biological target: human transferrin receptor expressed by nonhematopoietic cancer cells (human) (UniProt P02786); assay: FACS, SU.86.86 cells, 1x
[26] = biological target: human transferrin receptor expressed by nonhematopoietic cancer cells (human) (UniProt P02786); assay: FACS, HEC-1-A cells, 1x
[27] = biological target: human transferrin receptor expressed by nonhematopoietic cancer cells (human) (UniProt P02786); assay: FACS, MDA-MB-453 cells, 1x
[28] = biological target: human transferrin receptor expressed by nonhematopoietic cancer cells (human) (UniProt P02786); assay: FACS, WiDr cells, 1x
[29] = biological target: human transferrin receptor expressed by nonhematopoietic cancer cells (human) (UniProt P02786); assay: FACS, H727 cells, 1x
[30] = biological target: human transferrin receptor expressed by nonhematopoietic cancer cells (human) (UniProt P02786); assay: FACS, NCI-N87 cells, 1x

Chain of human transferrin receptor expressed by nonhematopoietic cancer cells (human) (P02786 whole entry G142S): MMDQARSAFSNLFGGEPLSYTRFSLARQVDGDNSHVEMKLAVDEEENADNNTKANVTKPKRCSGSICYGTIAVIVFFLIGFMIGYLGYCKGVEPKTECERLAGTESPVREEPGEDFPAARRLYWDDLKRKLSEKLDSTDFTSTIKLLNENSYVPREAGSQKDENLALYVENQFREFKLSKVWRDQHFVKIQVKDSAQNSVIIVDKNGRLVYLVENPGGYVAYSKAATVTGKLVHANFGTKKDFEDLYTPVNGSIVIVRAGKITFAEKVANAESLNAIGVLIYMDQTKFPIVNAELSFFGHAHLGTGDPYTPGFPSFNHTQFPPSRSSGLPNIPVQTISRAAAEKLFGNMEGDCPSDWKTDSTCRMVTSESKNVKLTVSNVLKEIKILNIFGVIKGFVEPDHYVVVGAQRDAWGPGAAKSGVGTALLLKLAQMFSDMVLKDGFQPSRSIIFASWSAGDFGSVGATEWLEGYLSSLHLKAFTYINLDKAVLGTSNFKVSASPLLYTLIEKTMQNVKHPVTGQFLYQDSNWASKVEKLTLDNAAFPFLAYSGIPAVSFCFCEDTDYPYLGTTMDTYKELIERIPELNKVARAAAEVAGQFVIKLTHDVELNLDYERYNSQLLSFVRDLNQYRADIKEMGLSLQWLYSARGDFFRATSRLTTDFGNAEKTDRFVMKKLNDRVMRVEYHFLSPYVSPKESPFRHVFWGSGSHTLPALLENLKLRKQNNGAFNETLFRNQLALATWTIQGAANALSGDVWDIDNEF

B1: antibody 6-90 (antibody, mouse IgM, V domains shown)
VH: EVELQQFGIEMVKPGASVKISCKASGYIFTDYHMDWVRQSHGKSLEWIGDIDPKYDRVTYNQKFKGKASLTADKSSSTAYMELRSLTSEDTAVYYCAKTGAYGDYLAYWGQGTLVTVSA
VL: DLVMTQTPLSLPVSLGDQASISCRSSQSLVHSDGNTYFYWYLQKPGQSPKLLIYKVSNRFSGVPDRFSAGGSGTYFTLKISRVEAEDLGVYFCSQTTHFPPTFGGGTKLEIKR
notes: Mouse IgM, kappa from a hybridoma; tested as hybridoma culture supernatant
- MFI [1]: 5100 MFI
- MFI [2]: 7090 MFI
- MFI [3]: 3760 MFI
- MFI [4]: 3970 MFI
- MFI [5]: 1410 MFI
- MFI [6]: 1420 MFI
- MFI [7]: 5810 MFI
- MFI [8]: 4750 MFI

B2: antibody 55-31 (antibody, mouse IgM, V domains shown)
VH: QVQLQQPGAELVKPGTSVKLSCKASGYNFTSYWINWVKLRPGQGLEWIGDIYPGSGSTNYNEKFKSKATLTVDTSSSTAYMQLSSLASEDSALYYCARSAYRYDWFAYWGQGTLVTVSA
VL: DIQMTQSPASLSVSVGETVTITCRASENIYSNLAWYQQKQGKSPQLLVYAATNLADGVPSRFSGSGSGTQYSLKINSLQSEDFGSYYCQHFWGTPYTFGGGTKLEIKR
notes: as for B1
- MFI [9]: 897 MFI
- MFI [3]: 219 MFI
- MFI [5]: 140 MFI
- MFI [10]: 2370 MFI
- MFI [11]: 2280 MFI
- MFI [12]: 503 MFI
- MFI [13]: 773 MFI
- MFI [14]: 2280 MFI
- MFI [15]: 711 MFI

B3: antibody 122-72 (antibody, V domains shown)
VH: EVQLVESGGGLVQPKGSLKLSCAASGFTFNTYAMNWVRQAPGKGLEWVARIRSKSNNYATYYADSVKDRFTISRDDSQSMLYLQMNNLKTEDTAMYYCVAYGSRNYWGQGTTLTVSS
VL: DIVMTQSPSSLTVTAGEKVTMSCKSSQSLLNSGNQKNYLTWYQQKPGQPPKLLIYWASTRESGVPDRFTGSGSGTDFTLTISSVQAEDLAVYYCQNDYSYPYTFGGGTKLEIKR
notes: Mouse IgM, kappa from a hybridoma; tested as hybridoma culture supernatant; Antibody 60-43 is said to have the same CDRs
- MFI [1]: 4300 MFI
- MFI [16]: 4150 MFI
- MFI [17]: 319 MFI
- MFI [18]: 613 MFI
- MFI [4]: 5100 MFI
- MFI [19]: 6660 MFI
- MFI [20]: 51 MFI
- MFI [21]: 467 MFI
- MFI [22]: 3460 MFI
- MFI [11]: 13 MFI
- MFI [23]: 2500 MFI
- MFI [24]: 4690 MFI
- MFI [25]: 5070 MFI
- MFI [26]: 72 MFI
- MFI [27]: 53 MFI
- MFI [28]: 2480 MFI
- MFI [29]: 623 MFI
- MFI [30]: 3940 MFI
